How the values were obtained:
[1] = substrate: O=c1[nH]c(=O)n([C@H]2C[C@H](O)[C@@H](COP(=O)(O)OP(=O)(O)OP(=O)(O)O)O2)cc1F; experiment: EnzChek pyrophosphate coupled assay, Michaelis-Menten substrate kinetics (KM); format: biochemical, Homo sapiens; conditions: Mg2+ ([…] MgCl2 in the assay buffer)
purified protein = substrate: O=c1ccn([C@H]2C[C@H](O)[C@@H](COP(=O)(O)OP(=O)(O)OP(=O)(O)O)O2)c(=O)[nH]1; experiment: purified protein; conditions: Mg2+ ([…] MgCl2 in the assay buffer)

B1: dUTPase (Deoxyuridine triphosphate nucleotidohydrolase) (Homo sapiens) (protein)
chain: ASTVGAAGWKGELPKAGGSPAPGPETPAISPSKRARPAEVGGMQLRFARLSEHATAPTRGSARAAGYDLYSAYDYTIPPMEKAVVKTDIQIALPSGCYGRVAPRSGLAAKHFIDVGAGVIDEDYRGNVGVVLFNFGKEKFEVKKGDRIAQLICERIFYPEIEEVQALDDTERGSGGFGSTGKN
**Q.** With B1 as the protein, how does the Km [1] read?
**A.** 19.1 ± 6.7 µM

**Q.** And the Km (purified protein)?
**A.** 3.2 ± 1.8 µM

— article PMC10156769, “The novel anti-cancer fluoropyrimidine NUC-3373 is a potent inhibitor of thymidylate synthase and an effective DNA-damaging agent” (Cancer Chemotherapy and Pharmacology, 2023)
